Square brackets hold non-standard residues; d marks the D form. Ends that are not written are not given here. hArg = N=C(N)NCCCC[C@H](N)C(=O)O; Nle = CCCC[C@H](N)C(=O)O; Aib = CC(C)(N)C(=O)O
Legend:
[1] = molecular target: T1, human parathyroid hormone receptor (PTHR) (human, UniProt Q03431 27-593); assay: cell-based or functional assay
T1 sequence: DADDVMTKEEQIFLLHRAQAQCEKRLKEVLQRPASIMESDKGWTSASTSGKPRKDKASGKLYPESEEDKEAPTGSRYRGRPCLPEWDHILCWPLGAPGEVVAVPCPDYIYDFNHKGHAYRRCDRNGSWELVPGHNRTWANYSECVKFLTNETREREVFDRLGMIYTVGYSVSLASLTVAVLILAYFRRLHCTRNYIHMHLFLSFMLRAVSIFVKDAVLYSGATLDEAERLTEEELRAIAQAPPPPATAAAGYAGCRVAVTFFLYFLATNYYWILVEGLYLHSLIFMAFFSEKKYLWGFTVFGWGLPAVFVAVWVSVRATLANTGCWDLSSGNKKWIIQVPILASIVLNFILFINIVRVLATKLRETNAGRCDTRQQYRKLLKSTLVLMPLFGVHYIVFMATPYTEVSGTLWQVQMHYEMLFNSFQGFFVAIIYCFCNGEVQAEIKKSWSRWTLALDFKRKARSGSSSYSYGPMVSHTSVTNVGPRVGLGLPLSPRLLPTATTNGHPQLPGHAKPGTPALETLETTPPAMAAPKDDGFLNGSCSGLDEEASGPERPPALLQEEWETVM

[2] = molecular target: T1, human parathyroid hormone receptor …; assay: cell-based or functional assay; remark: listed apart in the source
[3] = molecular target: T1, human parathyroid hormone receptor …; assay: ratio of R0 IC50 to RG IC50, hPTHR
[4] = molecular target: T1, human parathyroid hormone receptor …; assay: competition radioligand binding, human PTH1 receptor R0
Method: (§1) Binding Studies. Binding studies were performed using cell membranes as described (Dean et al., Mol Endocrinol 20(4):931-43 (2006)). […] Reactions contained a total membrane protein concentration of 20 to 100 μg/mL, and a total radioactivity concentration of approximately 150,000 cpm/ml. Unlabeled peptide ligands and/or GTPγS (Sigma-Aldrich Inc. St. Louis, Mo.) were added to the reactions as indicated. At the end of the reaction, bound and free radioligand were separated by vacuum filtration using a 96-well vacuum filter plate and vacuum filter apparatus (Multi-Screen system with Durapore HV, […] filters; Millipore Corp., Milford, Mass.); the air-dried filters were then detached from the plate and counted for gamma radioactivity using a gamma counter.
(§2) To assess the capacities of various unlabeled peptide ligands to bind to the G protein-uncoupled and G protein-coupled PTHR conformations (R⁰ and RG, respectively), membranes were prepared from transiently transfected COS-7 cells and the following assay conditions.

[5] = molecular target: T1, human parathyroid hormone receptor …; assay: competition radioligand binding, human PTH1 receptor RG
Method: as §1, §2

[6] = molecular target: T1, human parathyroid hormone receptor …; assay: ratio of R0 IC50 to RG IC50, human PTH1 receptor
[7] = molecular target: T1, human parathyroid hormone receptor …; assay: cell-based or functional assay; remark: listed apart in the source
[8] = molecular target: T1, human parathyroid hormone receptor …; assay: competition vs 125I-[Aib1,3,M]PTH(1-15), COS-7 membranes hPTHR + GsND (RG)
Method: (§3) Radioligand dissociation. These studies were performed as bulk reactions in 15 mL round-bottom polystyrene snap-cap tubes (Falcon) (total reaction volume=5.0 ml). Membranes and radioligand were pre-incubated for 90 minutes to allow complex formation; the dissociation phase was then initiated by the addition of an excess of the unlabeled analog of the radioligand (5×10⁻⁷ M final concentration), with or without GTPγS (5×10⁻⁵ M). Immediately prior to this addition (t=0), and at successive time-points thereafter, 0.2 ml aliquots (30,000 cpm) were withdrawn and immediately processed by vacuum filtration, as described above. Non-specific binding was determined in parallel reaction tubes containing the unlabeled analog of the radioligand (5×10⁻⁷ M) in both the pre-incubation and dissociation phases. The specifically bound radioactivity at each time point was calculated as a percent of the radioactivity specifically bound at t=0. Equilibrium competition binding and GTPγS inhibition. […] Membranes, tracer radioligand, and various concentrations of unlabeled ligands and/or GTPγS were incubated in the wells for 90 minutes, following which, the reaction plates were processed by rapid vacuum filtration to separate bound from free radioligand, as described above. […] For both radioligands, the non-specific binding was determined in reactions containing a saturating concentration of the unlabeled analog of the radioligand. The specifically bound radioactivity was calculated as a percent of the radioactivity specifically bound in the absence of a competing ligand or GTPγS.

[9] = molecular target: T1, human parathyroid hormone receptor …; assay: competition vs 125I-PTH(1-34) + GTPgammaS, COS-7 membranes hPTHR (R0)
Method: as §3

[10] = molecular target: T1, human parathyroid hormone receptor …; assay: ratio of R0 IC50 to RG IC50, hPTHR; remark: listed apart in the source
[11] = molecular target: T1, human parathyroid hormone receptor …; assay: screen, binding to human PIR R0 relative to parent PTHrP(1-28)NH; footnote not given
[12] = molecular target: T1, human parathyroid hormone receptor …; assay: competition radioligand binding, hPTHR R0 conformation
Method: as §1, §2

[13] = molecular target: T1, human parathyroid hormone receptor …; assay: screen, binding to human PIR RG relative to parent PTHrP(1-28)NH; footnote not given
[14] = molecular target: T1, human parathyroid hormone receptor …; assay: competition radioligand binding, hPTHR RG conformation
Method: as §1, §2

[15] = molecular target: T1, human parathyroid hormone receptor …; assay: competition radioligand binding, human PIR RG
Method: as §1, §2

[16] = molecular target: T1, human parathyroid hormone receptor …; assay: competition radioligand binding, human PIR R0
Method: as §1, §2

[17] = molecular target: T2, rat parathyroid hormone receptor (PTHR) (rat, UniProt P25961 27-591); assay: cell-based or functional assay
T2 sequence: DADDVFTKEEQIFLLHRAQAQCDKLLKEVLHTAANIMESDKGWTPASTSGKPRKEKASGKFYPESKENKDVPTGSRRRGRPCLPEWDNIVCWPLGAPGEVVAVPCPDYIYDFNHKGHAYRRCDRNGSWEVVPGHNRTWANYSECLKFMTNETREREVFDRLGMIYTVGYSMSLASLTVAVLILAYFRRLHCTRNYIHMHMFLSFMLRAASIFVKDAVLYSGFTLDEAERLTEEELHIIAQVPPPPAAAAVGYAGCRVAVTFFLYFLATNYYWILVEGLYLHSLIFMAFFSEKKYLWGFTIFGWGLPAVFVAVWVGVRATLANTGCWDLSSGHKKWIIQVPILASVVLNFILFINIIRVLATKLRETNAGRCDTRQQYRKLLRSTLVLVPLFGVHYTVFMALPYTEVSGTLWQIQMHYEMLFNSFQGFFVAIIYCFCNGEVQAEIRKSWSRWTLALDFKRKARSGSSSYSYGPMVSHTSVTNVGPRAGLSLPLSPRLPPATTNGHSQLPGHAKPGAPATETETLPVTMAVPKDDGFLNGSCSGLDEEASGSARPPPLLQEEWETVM

B1: [Nle^8,21,Tyr^34]rPTH(1-34)NH2 (peptide)
peptide: AVSEIQLXHNLGKHLASVERXQWLRKKLQDVHNY
modifications: Nle at 8 and 21; C-terminal amide
notes: also called [Nle^8,21,Tyr^34]rat(r)PTH(1-34)NH2; control PTH(1-34) analog
IP in COS-7/hPTHR cells, EC50 [1]: 18 nM
IP in COS-7/hPTHR cells, Emax [1]: 2410 cpm/well
cAMP in HKRK-B64 cells, EC50 [1]: 5.1 nM
cAMP in HKRK-B64 cells, Emax [1]: 55 picomole/well
delayed cAMP response 60 minutes after wash-out, % of maximum, HKRK-B64 cells [2]: 47%
t1/2 of decay of the cAMP signaling response, HKRK-B7 cells [2]: ~2 h
R0:RG [3]: 5

B2: [A1,3,23]-PTH(1-34)OH (peptide)
peptide: AVAEIQLMHNLGKHLNSMERVEALRKKLQDVHNF-OH
notes: also called [A^1,A^3,A^23]-PTH(1-34)OH; [A1,3,23]-hPTH(1-34)
IC50 [4]: 1840 nM
IC50 [5]: 0.43 nM
R0/RG ratio [6]: 4290
cAMP in HKRK-B7 cells, EC50 [7]: 1.93 nM
cAMP in HKRK-B7 cells, Max [7]: 66.6 pm/well

SVSEHQLMHNLGKHLNSMERVEWLRKKLQDVHNF-NH2 [[His^5]hPTH(1-34)NH2]
delayed cAMP response 60 minutes after wash-out, % of maximum, HKRK-B64 cells [2]: 34%
R0:RG [3]: 160
IC50 [8]: 0.76 nM
IC50 [9]: 122 nM

AVSEHQLLHDKGKSIQDARRRAFLHKLI-NH2 [A18,22,K26-PTHrP(1-28)NH]
R0/RG selectivity [10]: 18100
human PIR R0 (% parent) [11]: 178 % parent
IC50 [12]: 1.81 µM
human PIR RG (% parent) [13]: 193 % parent
IC50 [14]: 0.1 nM
IC50 [15]: 0.1 nM
IC50 [16]: 1.81 µM

AVSEHQLLHDKGKSIQDERRRAFLHKLI-NH2 [E18,A22,K26-PTHrP(1-28)NH]
R0/RG selectivity [10]: 38300
human PIR R0 (% parent) [11]: 68.8 % parent
IC50 [12]: 9.24 µM
human PIR RG (% parent) [13]: 145 % parent
IC50 [14]: 0.24 nM
IC50 [15]: 0.24 nM
IC50 [16]: 9.24 µM

B3: rPTH(1-34)NH2 (peptide)
peptide: AVSEIQLMHNLGKHLASVERMQWLRKKLQDVHNF-NH2
notes: also called r(rat)PTH(1-34)NH2; rat-PTH(1-34)
cAMP in ROS17/2.8 cells, EC50 [17]: 0.021 nM
R0:RG [3]: 7
IC50 [8]: 0.34 nM
IC50 [9]: 2.3 nM

AVSEHQLMHNLGKHLASVERMQWLRKKLQDVHNF-NH2 [[His^5]rPTH(1-34)NH2]
R0:RG [3]: 138
IC50 [8]: 0.19 nM
IC50 [9]: 26 nM

B4: [His^5,Nle^8,21,Tyr^34]rPTH(1-34)NH2 (peptide)
peptide: AVSEHQL[Nle]HNLGKHLASVER[Nle]QWLRKKLQDVHNY-NH2
modifications: N-terminus assumed
SMILES: CCCC[C@H](NC(=O)[C@H](CC(C)C)NC(=O)[C@H](CCC(N)=O)NC(=O)[C@H](Cc1c[nH]cn1)NC(=O)[C@H](CCC(=O)O)NC(=O)[C@H](CO)NC(=O)[C@@H](NC(=O)[C@H](C)N)C(C)C)C(=O)N[C@@H](Cc1c[nH]cn1)C(=O)N[C@@H](CC(N)=O)C(=O)N[C@@H](CC(C)C)C(=O)NCC(=O)N[C@@H](CCCCN)C(=O)N[C@@H](Cc1c[nH]cn1)C(=O)N[C@@H](CC(C)C)C(=O)N[C@@H](C)C(=O)N[C@@H](CO)C(=O)N[C@H](C(=O)N[C@@H](CCC(=O)O)C(=O)N[C@@H](CCCNC(=N)N)C(=O)N[C@@H](CCCC)C(=O)N[C@@H](CCC(N)=O)C(=O)N[C@@H](Cc1c[nH]c2ccccc12)C(=O)N[C@@H](CC(C)C)C(=O)N[C@@H](CCCNC(=N)N)C(=O)N[C@@H](CCCCN)C(=O)N[C@@H](CCCCN)C(=O)N[C@@H](CC(C)C)C(=O)N[C@@H](CCC(N)=O)C(=O)N[C@@H](CC(=O)O)C(=O)N[C@H](C(=O)N[C@@H](Cc1c[nH]cn1)C(=O)N[C@@H](CC(N)=O)C(=O)N[C@@H](Cc1ccc(O)cc1)C(N)=O)C(C)C)C(C)C
notes: also called His^5-PTH(1-34); H^5-PTH(1-34)
IP in COS-7/hPTHR cells, EC50 [1]: 30 nM
IP in COS-7/hPTHR cells, Emax [1]: 2230 cpm/well
cAMP in HKRK-B64 cells, EC50 [1]: 2.7 nM
cAMP in HKRK-B64 cells, Emax [1]: 59 picomole/well
R0:RG [3]: 753
IC50 [8]: 0.094 nM
IC50 [9]: 71 nM

AVAEIQLMHQRAKWLNSMRAVEWLRKKLQDVHNF-OH (Mc = A1,3,12,Q10,R11,W14,R19) [A20,Mc-PTH(1-34)OH]
IC50 [4]: 31.9 nM
IC50 [5]: 0.4 nM
R0/RG ratio [6]: 80

AVAEIQLMHQRAKWLNSMRRVEFLRKKLQDVHNF-OH (Mc = A1,3,12,Q10,R11,W14,R19) [F23,Mc-PTH(1-34)OH]
IC50 [4]: 1.2 nM
IC50 [5]: 0.23 nM
R0/RG ratio [6]: 5

B5: [Aib^1,3,Nle^8,Gln^10,homoarginine^11,Ala^12,Trp^14,Tyr^15]rPTH(1-15)NH2 (peptide)
peptide: [Aib]V[Aib]EIQL[Nle]HQ[hArg]AKWY-NH2
modifications: N-terminus assumed
SMILES: CCCC[C@H](NC(=O)[C@H](CC(C)C)NC(=O)[C@H](CCC(N)=O)NC(=O)[C@@H](NC(=O)[C@H](CCC(=O)O)NC(=O)C(C)(C)NC(=O)[C@@H](NC(=O)C(C)(C)N)C(C)C)[C@@H](C)CC)C(=O)N[C@@H](Cc1c[nH]cn1)C(=O)N[C@@H](CCC(N)=O)C(=O)N[C@@H](CCCCNC(=N)N)C(=O)N[C@@H](C)C(=O)N[C@@H](CCCCN)C(=O)N[C@@H](Cc1c[nH]c2ccccc12)C(=O)N[C@@H](Cc1ccc(O)cc1)C(N)=O
notes: also called [Aib^1,3,M]rPTH(1-15)NH2; [Aib^1,3,M]PTH(1-15)
R0:RG [3]: 1400
IC50 [8]: 0.74 nM
IC50 [9]: 1030 nM

From patent publication US20110172153A1 (GENERAL HOSPITAL, published 2011)
